Data reported in the NTF2 design screens of Basanta et al. (2020).

Assay: protease stability score; higher = more stable; yeast display proteolysis, trypsin and chymotrypsin;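 note: relative to predicted unfolded state with 0 unfolded-like and 1 meaning tenfold more protease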

Sequence	protease stability score
DEDEKILEKYIRIETRALKTGNEEERENLADPNTKIDVNGVKIHGMEDWSRKLLKWLRDHGATNDLKFERIKFQGEKVILDGRLHVHYNGVDLEIETIIYFTKYNGKWILKSMEVI	0.229
DEDEKIVKHMLEVLIHLILTGDWEMFQKLADPNTRLDINGREQVGWESVTKNLEHMRYHDIRSQHIEIQGNKLRNLTRVDGEVDGVRREIEVHIYSTKINGKWRLTSMQFH	1.1
DEDEKIYRWALSVFLRNFLTGDEDSLRRMMDPDVRLEVGDKEDHGMEKVVRWLTEMMRKFKGATVHLRDHKTQGNKVHLDLELNVGDKHSKLIIIIKKVDGQWIVDEFTVH	1.52
DEDEKKLEHHLRTYEEALRTGDEELNHRLADPNTKVDVDGRYIHGRDFWREIMNQWRFKEMRFREIHLQGDKANVDTEVNIDVNGREMRTESHIISIKIDGRWMIKEVRFR	0.799
DEDEKKLHKLSDELEHIWLTGDEDRWLELADPNTKVIINGKEVHGRENVAREIKKFLEDLGIDHFYIESSLAIDGRTDLNGQIHVNGRTLHVRIINHEFNGRVKRVEIHIR	2.09
DEDEKLKQEWMELFLESLRTGDWRILRKLIDPNVRLEVGDKQVIGREKVLEILKKILDEIRNQDVKLHDYTEINGRIYLDVELDLQQGDKRITLKIHTVLEKYDGRWIIRTFRIE	1.23
DEDEKLLEKIAREFFEALKTGDEDWLTELADPHVKLDVGEWDTHGMEEIKNVLKILLHELGFKHRELHDMDIVNGVNVIDVIIRINGKERKVTIIIVTIDGRIKSIHHRVN	2.15
DEDEKLMEETLKVLIRAFDTGNWEDLKRMVDPHVRIYFNGRIFHGREFFMEYVIHLRHHARIHLELKDIEVQGDKAHADSRVLVIQGDKSWEFDLEINMTKYDGRWHIKTIKIR	2.68
DEDEKLSKFAIDNFIQLMLTGDEDSLLHLADPNARLHFNGVEIHGMEEVQERLMRERKERGVRIHSIHIEHIDIQGDWIIVHMHITQRVNGKEESIERILILLKINGRWHLHQIRLH	1.28
DEDEKLSREAFRKLLEDRETGDEHMLTRNADPRARIEVNGVELHGREHAEKFWRHYHEKFKNIRINIEHHEIQGEKVIIRGILHVNGVNLTVEIHALKINGKWLNEEFSVK	0.129
DEDEKMAREFVELWVHLLSTGNEDLEKHLVDPHVRVDINGQEIHGRNHLITFLIQIKNLTFEFRHVRITVVGDKIQVHIHGIVQVNGQWREVMIDFEAEKINGRWLQKQFHVKIH	1.96
DEDEKMLREYQRLFEEASKTGDWEHMVKLLDPDVRIRIGDKDIVGREHVLEQKKRHEDHLGIDRVNIKLVIRDERHQGEKIFLDGEFIMHFNGRTYRQHVTIILTKINGRWWIESIEIR	1.19
DEDEKMMELIIKWLQNWMLTGDFDVLHDLVDPHAKYDIGDKEMHGREAQSFLRRRFDHIEHVHLRIDDVESQGDKLIVHGQNTVVGEINGKRENFKRKVHITLEKIDGQWFEREVRVR	1.51
DEDEKMSHEASRVTLQVLITGDEEAMHRLLDPNARMDYGDKQFHGWEEVSKLTTELLTRLGVDHYHMNDERIYGEKLDLDLTIHVNGRNRKFIIIVRKINGRWLIDSMTFK	0.576
DEDEKNLEKVAHDFIRATETGNEKILHELLDPNTREEINGVDLHGRETIAKFFLDIRRNLGIKVRMRLRDWKIYNGVVELDTEVIIDVGDKRIEHKVVIYVVKYNGRWLIDKIEWI	1.81
DEDEKNMHIAMEIYRESVETGNEKMHRHLLDPHARIRFDGQEFHGWKDAHRFMHHRTHEWRDHHIQLRDRDYIDGRVHIRVIIYGEFNGVRTTRDIEIHVEKIDGRWYFTNLIFG	0.285
DEDEKRARHALTLLVHSFLTGNFEFTTELLDPHYKLHVGEKTYIGRKAIKEWIREFHERIPNIKLKDITIEHMTWVGEKVVVHSRVEGEVDGKEMFLQVEIIMEKVNGRWIVHSIHMN	2.01
DEDEKRELARRFAKNFLHGDHDNIRDLADKDVDAQVGDQTFTGTEQLMRVVKEVRDRVDHFNLTSVDVHNGQADIHARAKVNGRDYRVKIRIKIHNGRILHVQFNRR	1.31
DEDEKRSEEFLNEFFHWVHTGDEEKLVKLMDPHMRLDVNGKESVGRENAFEMWHHLRIRRMDVRDIRVELVGDKAIARSDGHIDGEIDGVRIHTRVDLLLISRKVDGVWLFKSVSINSI	2.23
DEDEKRVEHTERFLSHSRRTGDEETLETMFDPNAKNIIDGRIFIGREFVEIWVRKFKNATEDLKVEEIRVQGNKVELVGNLFVQVGDKRYELDTRIEMTKIDGRWIIHRIEFR	1.21
DEDEKRWFDRADEVRRQWETGDFERHLRLMDPHVRMEVQQGDKHEEYHGRENVMEIIRQELERVKNVKLEVTDLEIQGEKVILRLKLHVNGRDIDIYIDIVFINGRIKHIRIRIQER	1.38
DEDEKSVKYAFTMYMQNITTGDEDTLKKYLDPNVKLHFNGVNLHGMESLNKWIREIRHRVRHVHFKDVRVIDGVLIVHIEWEVREDIDGQETEDRYIVRMIVLKIDGKWILRESQIL	1.74
DEDEKTAEETLNEFIRSLLTGDEDNLKHLLDPNTRFHINGQDIHGWEVYYEMFRQWRVTHVRLEVKDFRIFNGRLDADGHLRMHGTINGKNRDTSSILHMHSVKVNGRWVLTEVRVE	1.78
DEDEKVSHHAYKLIEHLFLTGDESTWMRMADPRTRIIIGDFHLIGREEWARVLKEILDRLGFKHIQFTDREVRVYGEKVHVELHLLLIQGDKEIRVELRYISDKIDGQWRYHSVTHHIK	0.998
DEDEKVVKLVFNEIREARRTGDEEKLHELFDPHVRLEQGDKNIHGREYMITQWRELRFHDYRINITHRTTYNGVAKVDGEVSVDYRIDGVRFHDKFRIKIVILKFDGRWMIHSEHIE	0.822
